According to patent publication US20220372155A1 (LYVGEN BIOPHARMA, published 2022):

Key:
[1] = target: T1, Human PD-1-ECD protein (mouse IgG2a Fc tag) (human, UniProt Q15116 25-170); test: bridging ELISA, coated CD40 ECD-His, soluble PD-1 ECD-mFc
T1 construct: extracellular domain; also called soluble human recombinant PD-1; not shown: mouse IgG2a Fc tag
Procedure: (§1) Briefly, human CD40 ECD protein (His tag) was diluted and coated onto an ELISA plate with a volume of […] by incubation at 4° C. overnight. […] After 1-hour incubation at room temperature, HRP-conjugated anti-Mouse IgG (H+L) antibody was added into the plate at 100 μL/well. The plate was incubated for 1 hour at room temperature followed by washing. TMB substrate solution was added at 100 μL/well and the color development was stopped by adding 100 uL/well Stop Solution (2N H2SO4). Absorbance at 450 nm and 620 nm was read by Tecan F200 Pro plate reader. GraphPad 7.0, “[Agonist] vs. response—Variable slope (four parameters)” was used to plot the binding data and calculate binding EC50 values.

[2] = target: T2, Ly090 (human CD40 ECD protein with His tag) (human, UniProt P25942 21-193); test: as above
T2 construct: extracellular domain; also called human CD40 ECD protein (His tag); recombinant human CD40; not shown: His tag
Procedure: as §1

[3] = target: T3, human PD-1 expressed on CHO cells (human, UniProt Q15116 25-288); test: FACS, CHO cells
T3 construct: whole, on cells; also used for human PD-1 on Jurkat reporter cells; also called Jurkat/NFkB-Luci/PD-1 cells

[4] = target: T4, human CD40 expressed on CHO cells (human, UniProt P25942 21-277); test: FACS, CHO cells
T4 construct: whole, on cells; also used for the reporter cells over-expressing human CD40; also called cellular CD40; CHO-CD40 cells

Measured: binding result

T1 sequence (Q15116 25-170): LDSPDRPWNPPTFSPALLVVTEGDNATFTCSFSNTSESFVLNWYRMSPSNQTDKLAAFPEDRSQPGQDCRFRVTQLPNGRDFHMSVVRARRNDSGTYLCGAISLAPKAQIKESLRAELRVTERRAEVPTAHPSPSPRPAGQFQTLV
T2 sequence (P25942 21-193): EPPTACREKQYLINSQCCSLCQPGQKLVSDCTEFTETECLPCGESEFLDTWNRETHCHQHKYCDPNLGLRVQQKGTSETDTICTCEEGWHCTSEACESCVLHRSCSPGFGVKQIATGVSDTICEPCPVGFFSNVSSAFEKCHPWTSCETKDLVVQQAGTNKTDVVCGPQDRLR
T3 sequence (Q15116 25-288): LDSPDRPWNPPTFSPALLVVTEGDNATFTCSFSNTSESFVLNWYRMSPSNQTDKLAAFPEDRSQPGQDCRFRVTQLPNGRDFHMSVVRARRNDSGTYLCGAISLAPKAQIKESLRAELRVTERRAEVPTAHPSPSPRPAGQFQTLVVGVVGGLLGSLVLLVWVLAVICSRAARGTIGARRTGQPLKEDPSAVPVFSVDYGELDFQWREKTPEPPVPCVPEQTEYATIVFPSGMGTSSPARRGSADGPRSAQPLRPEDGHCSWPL
T4 sequence (P25942 21-277): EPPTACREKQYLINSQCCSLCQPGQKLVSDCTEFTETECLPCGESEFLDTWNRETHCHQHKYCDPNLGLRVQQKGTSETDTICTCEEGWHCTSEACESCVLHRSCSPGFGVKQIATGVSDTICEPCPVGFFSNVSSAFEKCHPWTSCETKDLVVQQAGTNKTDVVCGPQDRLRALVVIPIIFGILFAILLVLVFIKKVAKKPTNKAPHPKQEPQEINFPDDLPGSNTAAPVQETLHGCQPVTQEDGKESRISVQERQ

B1: Ly519 (bispecific antibody, human IgG1, kappa)
heavy: QVTLKESGPALVKPTQTLTLTCTFSGFSLSTSGTCVSWIRQPPGKALEWLATICWEDSKGYNPSLKSRLTISKDTSKNQAVLTMTNMDPVDTATYYCARREDSGYFWFPYWGQGTLVTVSSASTKGPSVFPLAPSSKSTSGGTAALGCLVKDYFPEPVTVSWNSGALTSGVHTFPAVLQSSGLYSLSSVVTVPSSSLGTQTYICNVNHKPSNTKVDKKVEPKSCDKTHTCPPCPAPELLGPSVFLFPPKPKDTLMISRTPEVTCVVVDVSHEDPEVKFNWYVDGVEVHNAKTKPREEQYNSTYRVVSVLTVLHQDWLNGKEYKCKVSNKALPAPIEKTISKAKGQPREPQVYTLPPSREEMTKNQVSLTCLVKGFYPSDIAVEWESNGQPENNYKTTPPVLDSDGSFFLYSKLTVDKSRWQQGNVFSCSVMHEALHNHYTQKSLSLSPGK
light: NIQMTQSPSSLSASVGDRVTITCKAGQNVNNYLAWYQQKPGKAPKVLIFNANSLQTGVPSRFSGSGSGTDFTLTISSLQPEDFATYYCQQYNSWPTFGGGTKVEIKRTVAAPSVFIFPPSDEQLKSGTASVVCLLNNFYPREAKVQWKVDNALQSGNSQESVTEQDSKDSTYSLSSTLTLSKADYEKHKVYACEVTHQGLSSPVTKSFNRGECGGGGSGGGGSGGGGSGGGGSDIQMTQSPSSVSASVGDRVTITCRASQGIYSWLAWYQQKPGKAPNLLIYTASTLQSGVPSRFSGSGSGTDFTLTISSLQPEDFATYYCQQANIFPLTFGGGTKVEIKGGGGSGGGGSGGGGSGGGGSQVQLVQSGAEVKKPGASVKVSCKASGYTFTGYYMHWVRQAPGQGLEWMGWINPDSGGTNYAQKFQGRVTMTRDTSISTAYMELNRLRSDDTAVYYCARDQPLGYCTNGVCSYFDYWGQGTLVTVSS
notes: Ly516 HC (IgG1 mutated Fc) + Ly516 LC-Ly253 scFv VL-VH
binds: all assays above

B2: Ly520 (bispecific antibody, human IgG1, kappa)
heavy: QVTLKESGPALVKPTQTLTLTCTFSGFSLSTSGTCVSWIRQPPGKALEWLATICWEDSKGYNPSLKSRLTISKDTSKNQAVLTMTNMDPVDTATYYCARREDSGYFWFPYWGQGTLVTVSSASTKGPSVFPLAPSSKSTSGGTAALGCLVKDYFPEPVTVSWNSGALTSGVHTFPAVLQSSGLYSLSSVVTVPSSSLGTQTYICNVNHKPSNTKVDKKVEPKSCDKTHTCPPCPAPELLGPSVFLFPPKPKDTLMISRTPEVTCVVVDVSHEDPEVKFNWYVDGVEVHNAKTKPREEQYNSTYRVVSVLTVLHQDWLNGKEYKCKVSNKALPAPIEKTISKAKGQPREPQVYTLPPSREEMTKNQVSLTCLVKGFYPSDIAVEWESNGQPENNYKTTPPVLDSDGSFFLYSKLTVDKSRWQQGNVFSCSVMHEALHNHYTQKSLSLSPGK
light: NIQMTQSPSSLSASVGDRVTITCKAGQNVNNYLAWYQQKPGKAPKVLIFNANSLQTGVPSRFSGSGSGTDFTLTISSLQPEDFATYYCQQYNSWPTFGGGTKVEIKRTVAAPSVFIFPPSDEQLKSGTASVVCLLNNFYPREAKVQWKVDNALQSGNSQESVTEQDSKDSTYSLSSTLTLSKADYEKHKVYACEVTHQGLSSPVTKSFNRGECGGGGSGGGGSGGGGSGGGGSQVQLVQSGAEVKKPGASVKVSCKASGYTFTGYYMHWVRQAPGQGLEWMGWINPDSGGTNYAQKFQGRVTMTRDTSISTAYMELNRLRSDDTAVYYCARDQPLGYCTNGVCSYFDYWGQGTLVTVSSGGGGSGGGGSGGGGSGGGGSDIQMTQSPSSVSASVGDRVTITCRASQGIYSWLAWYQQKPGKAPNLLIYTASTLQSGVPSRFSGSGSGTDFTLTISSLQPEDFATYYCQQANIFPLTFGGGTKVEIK
notes: Ly516 HC (IgG1 mutated Fc) + Ly516 LC-Ly253 scFv VH-VL
binds: all assays above

B3: Ly517 (bispecific antibody, human IgG1, kappa)
heavy: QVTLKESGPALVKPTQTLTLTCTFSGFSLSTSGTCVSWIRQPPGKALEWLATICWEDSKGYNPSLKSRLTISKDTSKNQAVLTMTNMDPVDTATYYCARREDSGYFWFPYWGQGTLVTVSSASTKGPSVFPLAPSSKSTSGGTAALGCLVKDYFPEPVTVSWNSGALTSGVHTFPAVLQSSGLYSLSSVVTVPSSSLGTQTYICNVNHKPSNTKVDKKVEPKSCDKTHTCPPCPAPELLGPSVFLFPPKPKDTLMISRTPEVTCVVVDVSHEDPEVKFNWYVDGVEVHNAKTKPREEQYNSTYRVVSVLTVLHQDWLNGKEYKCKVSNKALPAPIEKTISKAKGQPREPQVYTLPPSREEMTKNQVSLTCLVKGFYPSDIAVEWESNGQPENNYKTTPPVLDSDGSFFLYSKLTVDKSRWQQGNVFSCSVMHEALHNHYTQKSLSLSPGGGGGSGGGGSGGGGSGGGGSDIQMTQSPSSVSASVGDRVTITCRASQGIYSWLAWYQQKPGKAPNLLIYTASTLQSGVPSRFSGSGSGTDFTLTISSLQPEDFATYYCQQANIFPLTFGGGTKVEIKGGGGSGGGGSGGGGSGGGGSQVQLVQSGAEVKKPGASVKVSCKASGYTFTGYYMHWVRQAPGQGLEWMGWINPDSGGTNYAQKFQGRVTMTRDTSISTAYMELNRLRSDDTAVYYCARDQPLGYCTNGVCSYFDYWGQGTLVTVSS
light: NIQMTQSPSSLSASVGDRVTITCKAGQNVNNYLAWYQQKPGKAPKVLIFNANSLQTGVPSRFSGSGSGTDFTLTISSLQPEDFATYYCQQYNSWPTFGGGTKVEIKRTVAAPSVFIFPPSDEQLKSGTASVVCLLNNFYPREAKVQWKVDNALQSGNSQESVTEQDSKDSTYSLSSTLTLSKADYEKHKVYACEVTHQGLSSPVTKSFNRGEC
notes: Ly516 HC (IgG1 mutated Fc)-Ly253 scFv VL-VH + Ly516 LC
binds: all assays above

B4: Ly607 (bispecific antibody, human IgG1, kappa)
heavy: QVTLKESGPALVKPTQTLTLTCTFSGFSLSTSGTCVSWIRQPPGKALEWLATICWEDSKGYNPSLKSRLTISKDTSKNQAVLTMTNMDPVDTATYYCARREDSGYFWFPYWGQGTLVTVSSASTKGPSVFPLAPSSKSTSGGTAALGCLVKDYFPEPVTVSWNSGALTSGVHTFPAVLQSSGLYSLSSVVTVPSSSLGTQTYICNVNHKPSNTKVDKKVEPKSCDKTHTCPPCPAPELLGPSVFLFPPKPKDTLMISRTPEVTCVVVDVSHEDPEVKFNWYVDGVEVHNAKTKPREEQYNSTYRVVSVLTVLHQDWLNGKEYKCKVSNKALPAPIEKTISKAKGQPREPQVYTLPPSREEMTKNQVSLTCLVKGFYPSDIAVEWESNGQPENNYKTTPPVLDSDGSFFLYSKLTVDKSRWQQGNVFSCSVMHEALHNHYTQKSLSLSPGGGGGSGGGGSGGGGSGGGGSQVQLVESGGGLVQPGGSLKLSCATSGFNFNDYFMNWVRQASGKGLEWVGQIRNKNYNYATYYTESLEGRVTISRDDSKNTAYLQMNSLKTEDTAVYYCTSYYYDGFADYFDYWGQGTTVTVSSGGGGSGGGGSGGGGSGGGGSDIQMTQSPSSLSASVGDRVTITCKASQNIYIYLNWYQQKPGKAPKLLIYNTNNLQTGVPSRFSGSGSGTDFTLTISSLQPEDFATYYCLQHSSRRTFGGGTKVEIK
light: NIQMTQSPSSLSASVGDRVTITCKAGQNVNNYLAWYQQKPGKAPKVLIFNANSLQTGVPSRFSGSGSGTDFTLTISSLQPEDFATYYCQQYNSWPTFGGGTKVEIKRTVAAPSVFIFPPSDEQLKSGTASVVCLLNNFYPREAKVQWKVDNALQSGNSQESVTEQDSKDSTYSLSSTLTLSKADYEKHKVYACEVTHQGLSSPVTKSFNRGEC
notes: Ly516 HC (IgG1 mutated Fc)-TM740 scFv VH-VL + Ly516 LC
binds: all assays above

B5: Ly518 (bispecific antibody, human IgG1, kappa)
heavy: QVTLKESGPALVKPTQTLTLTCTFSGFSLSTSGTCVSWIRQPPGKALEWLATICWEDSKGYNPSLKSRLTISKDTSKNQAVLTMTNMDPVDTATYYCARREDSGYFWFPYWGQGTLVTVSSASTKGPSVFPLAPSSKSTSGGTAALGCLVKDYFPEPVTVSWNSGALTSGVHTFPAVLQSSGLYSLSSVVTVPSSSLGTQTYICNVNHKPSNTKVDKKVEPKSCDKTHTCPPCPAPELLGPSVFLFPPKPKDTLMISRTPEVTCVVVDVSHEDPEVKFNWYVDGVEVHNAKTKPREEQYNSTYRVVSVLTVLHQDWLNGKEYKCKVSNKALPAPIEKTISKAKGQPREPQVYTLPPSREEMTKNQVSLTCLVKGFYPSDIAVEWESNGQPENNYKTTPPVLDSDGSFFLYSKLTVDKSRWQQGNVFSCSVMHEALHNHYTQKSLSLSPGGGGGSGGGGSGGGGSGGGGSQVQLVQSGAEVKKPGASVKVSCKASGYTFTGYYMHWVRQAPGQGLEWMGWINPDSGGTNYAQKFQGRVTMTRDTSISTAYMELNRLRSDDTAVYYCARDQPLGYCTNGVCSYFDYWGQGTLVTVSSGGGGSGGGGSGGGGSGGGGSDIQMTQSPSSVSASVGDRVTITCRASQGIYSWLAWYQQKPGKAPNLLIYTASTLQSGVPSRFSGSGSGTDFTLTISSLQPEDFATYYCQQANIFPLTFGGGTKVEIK
light: NIQMTQSPSSLSASVGDRVTITCKAGQNVNNYLAWYQQKPGKAPKVLIFNANSLQTGVPSRFSGSGSGTDFTLTISSLQPEDFATYYCQQYNSWPTFGGGTKVEIKRTVAAPSVFIFPPSDEQLKSGTASVVCLLNNFYPREAKVQWKVDNALQSGNSQESVTEQDSKDSTYSLSSTLTLSKADYEKHKVYACEVTHQGLSSPVTKSFNRGEC
notes: Ly516 HC (IgG1 mutated Fc)-Ly253 scFv VH-VL + Ly516 LC
binds: all assays above

B6: Ly606 (bispecific antibody, human IgG1, kappa)
heavy: QVTLKESGPALVKPTQTLTLTCTFSGFSLSTSGTCVSWIRQPPGKALEWLATICWEDSKGYNPSLKSRLTISKDTSKNQAVLTMTNMDPVDTATYYCARREDSGYFWFPYWGQGTLVTVSSASTKGPSVFPLAPSSKSTSGGTAALGCLVKDYFPEPVTVSWNSGALTSGVHTFPAVLQSSGLYSLSSVVTVPSSSLGTQTYICNVNHKPSNTKVDKKVEPKSCDKTHTCPPCPAPELLGPSVFLFPPKPKDTLMISRTPEVTCVVVDVSHEDPEVKFNWYVDGVEVHNAKTKPREEQYNSTYRVVSVLTVLHQDWLNGKEYKCKVSNKALPAPIEKTISKAKGQPREPQVYTLPPSREEMTKNQVSLTCLVKGFYPSDIAVEWESNGQPENNYKTTPPVLDSDGSFFLYSKLTVDKSRWQQGNVFSCSVMHEALHNHYTQKSLSLSPGGGGGSGGGGSGGGGSGGGGSDIQMTQSPSSLSASVGDRVTITCKASQNIYIYLNWYQQKPGKAPKLLIYNTNNLQTGVPSRFSGSGSGTDFTLTISSLQPEDFATYYCLQHSSRRTFGGGTKVEIKGGGGSGGGGSGGGGSGGGGSQVQLVESGGGLVQPGGSLKLSCATSGFNFNDYFMNWVRQASGKGLEWVGQIRNKNYNYATYYTESLEGRVTISRDDSKNTAYLQMNSLKTEDTAVYYCTSYYYDGFADYFDYWGQGTTVTVSS
light: NIQMTQSPSSLSASVGDRVTITCKAGQNVNNYLAWYQQKPGKAPKVLIFNANSLQTGVPSRFSGSGSGTDFTLTISSLQPEDFATYYCQQYNSWPTFGGGTKVEIKRTVAAPSVFIFPPSDEQLKSGTASVVCLLNNFYPREAKVQWKVDNALQSGNSQESVTEQDSKDSTYSLSSTLTLSKADYEKHKVYACEVTHQGLSSPVTKSFNRGEC
notes: Ly516 HC (IgG1 mutated Fc)-TM740 scFv VL-VH + Ly516 LC
binds: all assays above
